Results taken from US20190321483A1 (Novartis, published 2019).

B1: J5: Anti-cKIT Fab′5 conjugated to Compound (1), DAR 4 (Fab, V domains shown)
VH: QVQLVQSGAEVKKPGESLKISCKGSGYSFTNYWIAWVRQMPGKGLEWMGIIYPSNSYTLYSPSFQGQVTISADKSISTAYLQWSSLKASDTAMYYCARVPPGGSISYPAFDHWGQGTLVTVSS
VL: DIELTQPPSVSVSPGQTASITCSGDNIGSIYASWYQQKPGQAPVLVIYRDNKRPSGIPERFSGSNSGNTATLTISGTQAEDEADYYCSVTDMEQHSVFGGGTKLTVLG
modifications: Compound (1) on native cysteine LC-214C (EU); Compound (1) on native cysteines HC-220C-226C-229C (EU)
B2: J4: Anti-cKIT Fab′4 conjugated to Compound (1), DAR 4 (Fab, V domains shown)
VH: QVQLQQSGPGLVKPSQTLSLTCAISGDSVSTNSAAWNWIRQSPSRGLEWLGRIYYRSQWLNDYAVSVKSRITINPDTSKNQFSLQLNSVTPEDTAVYYCARQLTYPYTVYHKALDVWGQGTLVTVSS
VL: DIELTQPPSVSVSPGQTASITCSGDNLGDQYVSWYQQKPGQAPVLVIYDDTDRPSGIPERFSGSNSGNTATLTISGTQAEDEADYYCQSTDSKSVVFGGGTKLTVLG
modifications: Compound (1) on native cysteine LC-214C (EU); Compound (1) on native cysteines HC-220C-226C-229C (EU)
B3: J20: Anti-cKIT Fab′3 conjugated to mc-MMAF, DAR 4 (Fab, V domains shown)
VH: QVQLVQSGAEVKKPGSSVKVSCKASGGTFSSYAISWVRQAPGQGLEWMGTIGPFEGQPRYAQKFQGRVTITADESTSTAYMELSSLRSEDTAVYYCARGGYISDFDVWGQGTLVTVSS
VL: DIQMTQSPSSLSASVGDRVTITCRASQSISNYLAWYQQKPGKAPKLLIYDASSLQSGVPSRFSGSGSGTDFTLTISSLQPEDFATYYCQQYYYESITFGQGTKVEIKR
modifications: mc-MMAF on native cysteine LC-214C (EU); mc-MMAF on native cysteines HC-220C-226C-229C (EU)
B4: J1: Anti-cKIT Fab′1 conjugated to Compound (1), DAR 4 (Fab, V domains shown)
VH: QVQLVQSGAEVKKPGSSVKVSCKASGGTFSSYAISWVRQAPGQGLEWMGVIFPAEGAPGYAQKFQGRVTITADESTSTAYMELSSLRSEDTAVYYCARGGYISDFDVWGQGTLVTVSS
VL: DIQMTQSPSSLSASVGDRVTITCRASQSISNYLAWYQQKPGKAPKLLIYDASSLQSGVPSRFSGSGSGTDFTLTISSLQPEDFATYYCQQYYYESITFGQGTKVEIKR
modifications: Compound (1) on native cysteine LC-214C (EU); Compound (1) on native cysteines HC-220C-226C-229C (EU)
B5: J22: Anti-cKIT Fab′3 conjugated to Compound (2), DAR 4 (Fab, V domains shown)
VH: QVQLVQSGAEVKKPGSSVKVSCKASGGTFSSYAISWVRQAPGQGLEWMGTIGPFEGQPRYAQKFQGRVTITADESTSTAYMELSSLRSEDTAVYYCARGGYISDFDVWGQGTLVTVSS
VL: DIQMTQSPSSLSASVGDRVTITCRASQSISNYLAWYQQKPGKAPKLLIYDASSLQSGVPSRFSGSGSGTDFTLTISSLQPEDFATYYCQQYYYESITFGQGTKVEIKR
modifications: Compound (2) on native cysteine LC-214C (EU); Compound (2) on native cysteines HC-220C-226C-229C (EU)
B6: J21: Anti-cKIT Fab′3 conjugated to Compound (5), DAR 4 (Fab, V domains shown)
VH: QVQLVQSGAEVKKPGSSVKVSCKASGGTFSSYAISWVRQAPGQGLEWMGTIGPFEGQPRYAQKFQGRVTITADESTSTAYMELSSLRSEDTAVYYCARGGYISDFDVWGQGTLVTVSS
VL: DIQMTQSPSSLSASVGDRVTITCRASQSISNYLAWYQQKPGKAPKLLIYDASSLQSGVPSRFSGSGSGTDFTLTISSLQPEDFATYYCQQYYYESITFGQGTKVEIKR
modifications: Compound (5) on native cysteine LC-214C (EU); Compound (5) on native cysteines HC-220C-226C-229C (EU)
B7: J2: Anti-cKIT Fab′2 conjugated to Compound (1), DAR 4 (Fab, V domains shown)
VH: QVQLVQSGAEVKKPGSSVKVSCKASGGTFSSHALSWVRQAPGQGLEWMGGIIPSFGTADYAQKFQGRVTITADESTSTAYMELSSLRSEDTAVYYCARGLYDFDYWGQGTLVTVSS
VL: DIQMTQSPSSLSASVGDRVTITCRASQDISQDLAWYQQKPGKAPKLLIYDASSLQSGVPSRFSGSGSGTDFTLTISSLQPEDFAVYYCQQYYYLPSTFGQGTKVEIKR
modifications: Compound (1) on native cysteine LC-214C (EU); Compound (1) on native cysteines HC-220C-226C-229C (EU)

Target: Mouse cKIT on C57BL/6J bone marrow cells (mouse, UniProt P05532 25-979)
Assay: cell-based or functional assay

Question: For B1, which “EC50 (ng/ml), cell viability after 7 days, Mouse CD45+ cells” value is on record?
Answer: The value was 210 ng/mL.

Question: And the “EC50 (ng/ml), cell viability after 7 days, Mouse cKIT+ cells” value?
Answer: Its value is 120 ng/mL.

Question: What about the “EC50 (ng/ml), cell viability after 7 days, Mouse total nucleated cells” value of the same binder?
Answer: Its value is 210 ng/mL.

Question: How did the “EC50 (ng/ml), cell viability after 7 days, Mouse CD45+ cells” value turn out when B2 was run?
Answer: Its value is 3800 ng/mL.

Question: And the “EC50 (ng/ml), cell viability after 7 days, Mouse cKIT+ cells” value?
Answer: The value was 8 ng/mL.

Question: What about the “EC50 (ng/ml), cell viability after 7 days, Mouse total nucleated cells” value of the same binder?
Answer: The value was 3800 ng/mL.

Target: Human cKIT on human mobilized peripheral blood hematopoietic stem cells (human, UniProt P10721 26-976)
Assay: cell-based or functional assay

Question: With B3 as the binder, how does the “EC50 (ng/ml), cell viability after 7 days, Human CD34+ cells” value (from here on “EC50 (ng/ml) … Human CD34+ cells”) read?
Answer: The value was 25 ng/mL.

Question: And the “EC50 (ng/ml), cell viability after 7 days, Human CD90+ cells” value (“EC50 (ng/ml) … Human CD90+ cells” below)?
Answer: The value was 72 ng/mL.

Question: What about the “EC50 (ng/ml), cell viability after 7 days, Human total nucleated cells” value (shortened to “EC50 (ng/ml) … Human total nucleated cells”) of the same binder?
Answer: Its value is 20 ng/mL.

Question: With B4 as the binder, how does the “EC50 (ng/ml) … Human CD34+ cells” value read?
Answer: The value was 11 ng/mL.

Question: What about the “EC50 (ng/ml) … Human CD90+ cells” value of the same binder?
Answer: Its value is 13 ng/mL.

Question: What about the “EC50 (ng/ml) … Human total nucleated cells” value of the same binder?
Answer: The value was 48 ng/mL.

Question: What does the source list for B5?
Answer: EC50 (ng/ml), cell viability after 7 days, Human CD34+ cells: 10 ng/mL; EC50 (ng/ml), cell viability after 7 days, Human CD90+ cells: 17 ng/mL; EC50 (ng/ml), cell viability after 7 days, Human total nucleated cells: 8 ng/mL

Question: How did the “EC50 (ng/ml) … Human CD34+ cells” value turn out when B6 was run?
Answer: The value was 88 ng/mL.

Question: What about the “EC50 (ng/ml) … Human CD90+ cells” value of the same binder?
Answer: Its value is 22 ng/mL.

Question: What about the “EC50 (ng/ml) … Human total nucleated cells” value of the same binder?
Answer: The value was 154 ng/mL.

Question: Which “EC50 (ng/ml) … Human CD34+ cells” value does the source give for B7 here?
Answer: The value was 11 ng/mL.

Question: And the “EC50 (ng/ml) … Human CD90+ cells” value?
Answer: The value was 16 ng/mL.

Question: And the “EC50 (ng/ml) … Human total nucleated cells” value?
Answer: The value was 58 ng/mL.
